Where “and” joins values, the source holds several entries; their conditions need not be identical. Equal values may be shown once. Bridges are numbered along the chain shown (N, C = ends). Roman numbers before positions name the chains, in order. Where no end group is shown, it is not given here. [ ]: non-standard residue; d: D form. Phe(4-NH2) = Nc1ccc(C[C@H](N)C(=O)O)cc1
B1: MIU-35: B^1(H5, H10, Y16, L17)25-C^1-A^1 (H8, N18, N21) (ligand)
chain: GPEHLCGAHLVDALYLVCGDRGFYGYGSSSRRAPQTGIVDECCHRSCDLRRLENYCN
B2: MIU-69: B0, A14-PEG10K di-PEGylated B^1(H5,Y16,L17)25-C^1(K8)-A^1(K14, N18,21) (ligand)
chain: {PEG 10 kDa}-GPEHLCGAELVDALYLVCGDRGFYGYGSSSRKAPQTGIVDECCFRSCDLK(PEG 10 kDa)RLENYCN
modifications: disulfide 18-56, 42-47, 6-43
B3: MIU-58: B1-PEG20K-B1- Dimer (ligand)
chain: {PEG 20 kDa}-GPEHLCGAELVDALYLVCGDRGFYGYGSSSRRAPQTGIVDECCFRSCDLRRLENYCN
modifications: disulfide 18-56, 42-47, 6-43; also: dimer: two chains linked head to head via 20 kDa PEG
B4: MIU-57: B1-PEG20K B^1(H5,Y16,L17)25-C^1-A^1(N18,21) (ligand)
chain: {PEG 20 kDa}-GPEHLCGAELVDALYLVCGDRGFYGYGSSSRRAPQTGIVDECCFRSCDLRRLENYCN
modifications: disulfide 18-56, 42-47, 6-43
B5: MIU-68: B0, B22-PEG10K di-PEGylated B^1(H5,Y16,L17, K22)25-C^1(K8)-A^1(N18,21) (ligand)
chain: {PEG 10 kDa}-GPEHLCGAELVDALYLVCGDK(PEG 10 kDa)GFYGYGSSSRKAPQTGIVDECCFRSCDLRRLENYCN
modifications: disulfide 18-56, 42-47, 6-43
B6: MIU-67: B0, C8-PEG10K di-PEGylated B^1(H5,Y16,L17)25-C^1(K8)-A^1(N18,21) (ligand)
chain: {PEG 10 kDa}-GPEHLCGAELVDALYLVCGDRGFYGYGSSSRK(PEG 10 kDa)APQTGIVDECCFRSCDLRRLENYCN
modifications: disulfide 18-56, 42-47, 6-43
B7: IGF-1 A:B (H5D10Y16L17) DPI (ligand)
chain 1: GIVDECCFRSCDLRRLEMYCA-NH2
chain 2: GPEHLCGADLVDALYLVCGDRGFY-NH2
modifications: disulfide I:6-I:11, I:20-II:18, I:7-II:6
B8: IGF-1 A (H8 A9 N21):B(H5D10Y16L17 A22) DPI A-COOH (ligand)
chain 1: GIVDECCHASCDLRRLEMYCN
chain 2: GPEHLCGADLVDALYLVCGDAGFY
B9: IGF-1 A:B(D10Y16L17) DPI A-COOH (ligand)
chain 1: GIVDECCFRSCDLRRLEMYCA-OH
chain 2: GPETLCGADLVDALYLVCGDRGFY-NH2
modifications: disulfide I:6-I:11, I:20-II:18, I:7-II:6
B10: IGF-1 A (H8 A9 N21):B(H5D10Y16L17) DPI A-COOH (ligand)
chain 1: GIVDECCHASCDLRRLEMYCN-OH
chain 2: GPEHLCGADLVDALYLVCGDRGFY-NH2
modifications: disulfide I:6-I:11, I:20-II:18, I:7-II:6
B11: IGF-1 A:B(E10Y16L17) (ligand)
chain 1: GIVDECCFRSCDLRRLEMYCA
chain 2: GPETLCGAELVDALYLVCGDRGFYFNKPT
modifications: disulfide I:6-I:11, I:20-II:18, I:7-II:6; not fully specified (C-terminus)
B12: DP22: CTP-E5R-B chain-CTP(K)-A Chain (ligand)
chain: MGSSSSKAPPPSLPSPSRLPGPSDTPILPQEEEEERGPEHLCGAHLVDALYLVCGDRGFYSSSSRAPPPSLPSPSRLPGPSDTPILPQKGIVDECCHRSCDLRRLENYCN
B13: DP20 Lys C (two chain form of DP20) (ligand)
chain 1: GPEHLCGAHLVDALYLVCGDRGFYSSSSRAPPPSLPSPSRLPGPSDTPILPQK
chain 2: GIVDECCHRSCDLRRLENYCN
B14: DP20: GE5K-B chain-CTP(K)-A Chain (ligand)
chain: GEEEEEKGPEHLCGAHLVDALYLVCGDRGFYSSSSRAPPPSLPSPSRLPGPSDTPILPQKGIVDECCHRSCDLRRLENYCN
B15: DP22LysC (ligand)
chain 1: APPPSLPSPSRLPGPSDTPILPQEEEEERGPEHLCGAHLVDALYLVCGDRGFYSSSSRAPPPSLPSPSRLPGPSDTPILPQK
chain 2: GIVDECCHRSCDLRRLENYCN
B16: IGF1(Y^B16L^B17)(p-NH2-F)^A19amide (ligand)
chain 1: GIVDECCFRSCDLRRLEM[Phe(4-NH2)]CA
chain 2: GPETLCGAELVDALYLVCGDRGFYFNKPT
modifications: disulfide I:6-I:11, I:20-II:18, I:7-II:6; not fully specified (C-terminus); also: amide in name, site not given here
notes: also called IGF1 A:B(Y^B16L^B17)(p-NH2-F)^A19amide; IGF1 (Y^B16L^B17) A(p-NH2-F)^19
B17: IGF-1 A:B (E10Y16L17) DPI (ligand)
chain 1: GIVDECCFRSCDLRRLEMYCA-NH2
chain 2: GPETLCGAELVDALYLVCGDRGFY-NH2
modifications: disulfide I:6-I:11, I:20-II:18, I:7-II:6
B18: IGF-1 A:IGF-1 B(1-8)-In (9-17)-IGF-1 B(18-30) (ligand)
chain 1: GIVDECCFRSCDLRRLEMYCA-NH2
chain 2: GPETLCGSHLVEALYLVCGDRGFYFNKPT-NH2
modifications: disulfide I:6-I:11, I:20-II:18, I:7-II:6
B19: IGF-1 A:B(E10 Y16L17)-E31E32 B-COOH (ligand)
chain 1: GIVDECCFRSCDLRRLEMYCA-NH2
chain 2: GPETLCGAELVDALYLVCGDRGFYFNKPTEE-OH
modifications: disulfide I:6-I:11, I:20-II:18, I:7-II:6
B20: IGF-1 A:In (1-17)-IGF-1 B (18-30) (ligand)
chain 1: GIVDECCFRSCDLRRLEMYCA-NH2
chain 2: FVNQHLCGSHLVEALYLVCGDRGFYFNKPT-NH2
modifications: disulfide I:6-I:11, I:20-II:19, I:7-II:7
B21: IGF-1 A:In B(1-5)-IGF-1 B(YL)(6-30) (ligand)
chain 1: GIVDECCFRSCDLRRLEMYCA
chain 2: FVNQHLCGAELVDALYLVCGDRGFYFNKPT
modifications: not fully specified (bridges); cysteine pairing not given here; also: C-terminal amide, chain not given here
B22: IGF-1 A:B (H5D10Y16L17) (S=O)DPI (ligand)
chain 1: GIVDECCFRSCDLRRLEMYCA-NH2
chain 2: GPEHLCGADLVDALYLVCGDRGFY-NH2
modifications: disulfide I:6-I:11, I:20-II:18, I:7-II:6; also: (S=O), residue not given here
notes: the only Met stands at A18
B23: IGF-1 A:B (ligand)
chain 1: GIVDECCFRSCDLRRLEMYCA-NH2
chain 2: GPETLCGAELVDALQFVCGDRGFYFNKPT-NH2
modifications: disulfide I:6-I:11, I:20-II:18, I:7-II:6
notes: also called IGF-1 A and B chain heteroduplex
B24: IGF-2 AB(YL) (ligand)
chain 1: not shown
chain 2: AYRPSETLCGGELVDTLYLVCGDRGFYFSRPA
modifications: C-terminal amide
B25: IGF1(Y^B16L^B17)(AlaPro)^A-1,0 (ligand)
chain 1: APGIVDECCFRSCDLRRLEMYCA
chain 2: GPETLCGAELVDALYLVCGDRGFYFNKPT
B26: IGF1(Y^B16L^B17) (ligand)
chain 1: GIVDECCFRSCDLRRLEMYCA
chain 2: GPETLCGAELVDALYLVCGDRGFYFNKPT
notes: Two chain heteroduplex; may be the same molecule as m22; also called IGF1 (Y^B16L^B17) analog; IGF1 A:B(Y^B16L^B17)

molecular target: T1, human IGF-1 receptor (human, UniProt P08069 31-1367); assay: cell-based or functional assay

Row | Binder | % Insulin Activity (in vitro; assay not stated) [%]
1 | B1 | 3.2
2 | B2 | < 0.1
3 | B3 | 2.6
4 | B4 | 1.2
5 | B5 | < 0.1
6 | B6 | < 0.1

molecular target: T1, human IGF-1 receptor; assay: cell-based or functional assay; remark: another data set of the same source

Row | Binder | % IGF, total phosphorylation [%]
7 | B7 | 7.1
8 | B8 | 7.7
9 | B9 | 112
10 | B10 | 181
11 | B11 | 13

molecular target: T2, human insulin receptor (human, UniProt P06213 28-1382); assay: cell-based or functional assay

Row | Binder | % Insulin, total phosphorylation [%]
12 | B9 | 1580
13 | B11 | 49.2

molecular target: T1, human IGF-1 receptor; assay: cell-based or functional assay; remark: another data set of the same source

Row | Binder | EC50, phosphorylation (FIG. 18C) [nM]
14 | B12 | 83.1
15 | B13 | 8.23
16 | B14 | 316
17 | B15 | 14.8

molecular target: T2, human insulin receptor; assay: competition with 125I-insulin, receptor membranes, SPA

Row | Binder | IC50 [nM]
18 | B16 | 1.08

molecular target: T1, human IGF-1 receptor; assay: competition with 125I-IGF-1, receptor membranes, SPA

Row | Binder | % IGF-1 (in test) [%] | % native IGF-1 activity (0.55 nM) [%] | IC50
19 | B7 | 11.2 | 11.8 | 4.66 nM
20 | B8 | 2.3 | 2.4 | 22.8 nM
21 | B9 | 7.7 | 8.1 | 6.79 nM
22 | B17 | 3.3 | 2.4 | 22.9 nM
23 | B10 | 12.9 | 13.6 | 4.03 nM
24 | B11 |  |  | 7.85 nM and 12.2 nM
25 | B18 | 0.3 | 0.4 | 131 nM
26 | B19 | 3 | 3.1 | 17.5 nM
27 | B20 | 0.9 | 0.9 | 62.5 nM
28 | B21 | 3.6 | 2 | 27.5 nM

molecular target: T2, human insulin receptor; assay: competition with 125I-insulin, receptor membranes, SPA; remark: another data set of the same source

Row | Binder | % insulin (in test) [%] | IC50 | % native insulin activity (0.6 nM) [%]
29 | B7 | 479 | 0.16 nM | 
30 | B8 |  | 0.12 nM | 
31 | B9 |  | 0.2 nM and 0.42 nM and 0.26 nM | 
32 | B10 |  | 0.05 nM and 0.09 nM | 
33 | B22 | 316 | 0.25 nM | 
34 | B11 |  | 0.66 nM and 0.51 nM | 
35 | B18 | 19.1 | 1.59 nM | 37.7
36 | B23 | 5.8 | 10.4 nM | 5.8
37 | B20 |  | 2.77 nM and 2.67 nM and 2.48 nM | 
38 | B24 |  | 6.81 nM | 

molecular target: T2, human insulin receptor; assay: as above; remark: another data set of the same source

Row | Binder | IC50 [nM]
39 | B25 | 1.93

molecular target: T2, human insulin receptor; assay: as above; remark: another data set of the same source

Row | Binder | IC50 [nM]
40 | B26 | 0.51

Source: patent US20150299285A1 (INDIANA UNIVERSITY RESEARCH AND TECHNOLOGY, published 2015)
